Entries after “also recorded” stand apart in the source; their conditions may differ.
Tests used:
[1] = system: human lung carcinoma (CCL185); test: CCL185 lung carcinoma xenograft in athymic nude mice, intravenous therapy; assay type: in vivo
Text: FIG. 7: Inhibition of a human lung carcinoma (CCL185) growing as a xenograft in athymic nude mice by intravenous therapy with tTF fusion proteins (tTF-RGD, n=6; tTF-NGR, n=6) compared with tumor growth with infusion of physiological saline solution (NaCl, n=8) or tTF (n=1). The vertical arrows indicate the times of injection with the respective substances.
c: Inhibition of a human lung carcinoma (CCL185) growing as a xenograft in athymic nude mice by intravenous therapy with tTF fusion proteins (tTF-RGD, n=11) compared with the growth of the tumors in infusion of physiological saline solution (NaCl, n=10) or tTF (n=5). The vertical arrows indicate the times of the injections with the respective substances.
(§1) The tTF-RGD and tTF-NGR fusion proteins were evaluated with respect to their effects and side-effects on xenografts of human tumors in athymic nude mice. The models established in our laboratory were used for this (33, 34). The cell lines CCL185 (human adenocarcinoma of the lung) and M-21 (human melanoma) were injected subcutaneously into the flank of male BALB/c nude mice (9-12 weeks old). On attaining a tumor volume of about 50-100 mm^3 (CCL185) or 400-600 mm^3 (M−21), the mice were assigned to four groups at random. Group 1 received only physiological saline solution (NaCl), group 2 tTF, group 3 tTF-RGD, and group 4 tTF-NGR (in each case 1.5-2.0 mg/kg body weight (BW) of the protein). The injections were made in the caudal vein of the animals at intervals of 1-3 days (depending on the growth rate of the particular cell line). Considerable therapeutic activity of the fusion proteins was observed.

[2] = system: human malignant melanoma (M21); test: M21 melanoma xenograft in athymic nude mice, intravenous therapy; assay type: in vivo
Method: The vertical arrows indicate the times of injection with the respective substances.
The vertical arrows indicate the times of the injections with the respective substances.
as §1

[3] = system: human fibrosarcoma (HT1080); test: HT1080 fibrosarcoma xenograft in BALB/c nude mice, intravenous therapy; assay type: in vivo
Text: b: Inhibition of a human fibrosarcoma (HT1080) growing as a xenograft in athymic nude mice by intravenous therapy with tTF fusion proteins (tTF-RGD, n=12) compared with the growth of the tumors with infusion of physiological saline solution (NaCl, n=15) or tTF (n=14). The vertical arrows indicate the times of the injections with the respective substances.
The antitumor activity of the tTF-RGD fusion protein was also investigated in BALB/c nude mice with fibrosarcomas (HT1080). These tumors grow rapidly and are well-vascularized. […] This effect lasted until the end of the experiment on day 7 (P=0.021 for tTF-RGD relative to the buffer control (physiological saline solution), P=0.005 for tTF-RGD relative to tTF).

integrin αvβ3 = integrin αvβ3 (Homo sapiens, UniProt P05106+P06756); test: ELISA binding to immobilized purified αvβ3; conditions: 0.1 μM protein, immobilized αvβ3
Method: FIG. 4: Binding of tTF, tTF-RGD and tTF-NGR to integrin αvβ3. The binding of 0.1 μM tTF, tTF-RGD and tTF-NGR to immobilized αvβ3 was quantified with a polyclonal antibody against human TF (American Diagnostica) in an ELISA. The results are presented as median and interquartile range. The differences in binding between tTF-RGD and tTF or between tTF-NGR and tTF were statistically significant (p<0.001, Mann-Whitney test).

tumor blood vessels = test: Macroscopy and histology of tumors after injection (thrombosis induction in tumor vessels, necrosis); assay type: in vivo, mice
Method: FIG. 9: Macroscopic in vivo photograph of a tumor-bearing mouse 20 min after injection of the tTF-NGR fusion protein (A, left half of the picture) or NaCl (A, right half of the picture). […] After 60 min, the two mice were exsanguinated, the tumor was excised in toto and examined histologically. […] In contrast, the NaCl-treated tumor appears to be vital (C).
FIG. 10: Histology of the melanoma tumor 1 hour after intravenous injection of tTF-RGD (A and B), tTF-NGR (C and D) and common salt (E and F) in the caudal vein of the tumor-bearing nude mouse. […] The photographs are of representative areas of the tumors (A, C and E: 200× magnification, B, D and F 400× magnification; HE staining (staining described e.g. in H. C. Burck, Histologische Technik-Leitfaden für die Herstellung mikroskopischer Präparate in Unterricht und Praxis, 5th edition, Thieme Verlag, Stuttgart 1982, pages 109 ff.).
FIG. 35: Macrograph of a mouse bearing an M21 tumor at the end of treatment (day 7) with tTF-RGD fusion protein (A, C) or NaCl (B, D).
To verify the mechanism of action of thrombosis induction in tumor vessels, the following experiment was carried out: the human melanoma cell line was injected into the flank of two male BALB/c nude mice. On attaining a tumor size of approx. 500 mm^3, 2.0 mg/kg BW tTF-NGR or NaCl was injected into the caudal vein. […] After 60 min the mice were exsanguinated, the tumor was excised in toto and investigated histologically. […] In contrast, the tumor treated with NaCl appears to be vital (FIG. 9C).

[4] = system: normal tissue such as heart, kidney, liver and lung; conditions: mouse, in vivo
human endothelial cells = test: FACS binding of biotinylated proteins to endothelial cells in suspension; assay type: cell-based; conditions: 0.1 μM, 60 min at 4° C., streptavidin-phycoerythrin detection
Method: FIG. 6: Binding of tTF and tTF-RGD to human endothelial cells. A: FACS analysis of endothelial cells incubated with 0.1 μM tTF (2) or with 0.1 μM tTF-RGD (3) for 60 min at 4° C. […] Curves 1 in A and B show the negative control.
Next the specific binding of tTF-RGD to αvβ3 on endothelial cells was evaluated. For this, the differential binding of biotinylated tTF and tTF-RGD to endothelial cells in suspension was analysed by FACS (Fluorescence Activated Cell Sorting). The fact that all endothelial cells held in tissue culture are activated, i.e. express αvβ3 molecules, is utilized experimentally. This can be detected by various immunohistochemical methods. A cultivated endothelial cell thus corresponds, in relation to its expression pattern with respect to αvβ3 to a tumor endothelial cell. Accordingly, a cultivated endothelial cell can be used as a model system for the specific binding of substances to tumor endothelial cells and also permits predictions to be made concerning the expected toxicity.
Streptavidin-phycoerythrin was used as the detection method. The measured fluorescence intensity for tTF-RGD was higher by a factor of 8 than for tTF (FIG. 6A). Furthermore, the binding of 0.1 μM tTF-RGD to endothelial cells was lowered competitively by 75% by the administration of 1 μM of the synthetic peptide GRGDSP (SEQ ID NO:33) (FIG. 6B). […]

[5] = melanoma tumor 1 hour after intravenous injection, HE staining

integrin αvβ3, sequence (P06756 31-889 limits assumed): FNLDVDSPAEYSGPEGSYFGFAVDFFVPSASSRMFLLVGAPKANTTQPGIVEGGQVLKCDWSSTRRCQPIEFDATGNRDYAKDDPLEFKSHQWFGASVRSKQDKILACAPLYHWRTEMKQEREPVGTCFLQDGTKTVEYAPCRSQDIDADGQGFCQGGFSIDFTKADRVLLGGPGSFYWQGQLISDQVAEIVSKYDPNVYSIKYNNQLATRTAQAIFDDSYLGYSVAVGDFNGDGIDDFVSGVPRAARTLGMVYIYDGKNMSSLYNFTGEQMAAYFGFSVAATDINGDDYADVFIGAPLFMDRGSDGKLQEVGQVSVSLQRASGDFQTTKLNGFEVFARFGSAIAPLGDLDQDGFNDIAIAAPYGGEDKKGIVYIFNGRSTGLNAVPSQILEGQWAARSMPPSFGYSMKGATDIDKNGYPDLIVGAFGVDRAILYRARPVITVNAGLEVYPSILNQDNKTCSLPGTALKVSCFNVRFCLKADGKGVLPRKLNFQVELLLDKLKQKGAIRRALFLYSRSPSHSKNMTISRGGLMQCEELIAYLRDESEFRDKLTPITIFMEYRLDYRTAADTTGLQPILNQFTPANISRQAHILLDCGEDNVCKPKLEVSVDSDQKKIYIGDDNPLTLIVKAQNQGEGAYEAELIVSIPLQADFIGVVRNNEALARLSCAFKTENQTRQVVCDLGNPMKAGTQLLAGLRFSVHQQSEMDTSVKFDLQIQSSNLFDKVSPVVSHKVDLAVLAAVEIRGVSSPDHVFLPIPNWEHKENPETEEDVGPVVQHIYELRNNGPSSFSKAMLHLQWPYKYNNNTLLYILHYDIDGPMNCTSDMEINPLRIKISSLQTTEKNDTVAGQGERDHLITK
integrin αvβ3, sequence (P06756 891-1048 limits assumed): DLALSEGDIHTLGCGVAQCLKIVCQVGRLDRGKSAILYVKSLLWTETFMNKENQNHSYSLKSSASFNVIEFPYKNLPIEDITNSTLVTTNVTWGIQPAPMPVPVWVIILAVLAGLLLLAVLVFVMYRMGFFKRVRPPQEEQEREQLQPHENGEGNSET
integrin αvβ3, sequence (P05106 27-788): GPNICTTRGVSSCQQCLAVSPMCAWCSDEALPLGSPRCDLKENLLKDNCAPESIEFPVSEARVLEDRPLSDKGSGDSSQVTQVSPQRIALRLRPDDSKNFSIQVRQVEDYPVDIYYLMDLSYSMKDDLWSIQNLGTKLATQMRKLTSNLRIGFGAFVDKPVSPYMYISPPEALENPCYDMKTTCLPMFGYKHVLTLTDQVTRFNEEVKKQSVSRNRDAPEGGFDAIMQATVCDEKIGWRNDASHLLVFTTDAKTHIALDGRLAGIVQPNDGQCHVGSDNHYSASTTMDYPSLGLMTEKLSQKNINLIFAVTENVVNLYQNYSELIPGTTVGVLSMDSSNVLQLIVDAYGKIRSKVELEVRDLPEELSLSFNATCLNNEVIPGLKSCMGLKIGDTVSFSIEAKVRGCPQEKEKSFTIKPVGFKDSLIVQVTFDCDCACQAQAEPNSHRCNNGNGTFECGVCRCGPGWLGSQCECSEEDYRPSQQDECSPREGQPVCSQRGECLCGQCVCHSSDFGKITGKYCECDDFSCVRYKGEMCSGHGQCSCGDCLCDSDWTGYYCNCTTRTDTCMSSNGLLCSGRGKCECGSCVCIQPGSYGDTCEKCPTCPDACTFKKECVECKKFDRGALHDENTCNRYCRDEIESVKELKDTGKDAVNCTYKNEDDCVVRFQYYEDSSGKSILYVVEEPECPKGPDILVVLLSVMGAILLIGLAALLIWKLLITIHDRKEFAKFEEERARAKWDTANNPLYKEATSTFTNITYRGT

- binding to the αvβ3 integrin in ELISA (integrin αvβ3): demonstrated
B1: tTF-RGD: fusion polypeptide tTF-GRGDSP (SEQ ID NO:3), peptide coupled to C-terminus of tTF (protein)
chain: SGTTNTVAAYNLTWKSTNFKTILEWEPKPVNQVYTVQISTKSGDWKSKCFYTTDTECDLTDEIVKDVKQTYLARVFSYPAGNVESTGSAGEPLYENSPEFTPYLETNLGQPTIQSFEQVGTKVNVTVEDERTLVRRNNTFLSLRDVFGKDLIYTLYYWKSSSSGKKTAKTNTNEFLIDVDKGENYCFSVQAVIPSRTVNRKSTDSPVECMGQEKGEFRGRGDSD
modifications: Amino acid sequence of tTF-GRGDSP
- Mean tumor volume Day 0 ([1]; CCL185 tumors, Day 0 (baseline)): 45 ± 5 mm^3
- Mean tumor volume Day 7 ([1]; CCL185 tumors, Day 7): 130 ± 19 mm^3
- effect on tumor growth ([1]; CCL185 xenograft, intravenous therapy, compared with NaCl or tTF): Inhibition
- Mean tumor volume Day 0 ([2]; M21 tumors, Day 0 (baseline)): 585 ± 85 mm^3
- Mean tumor volume Day 7 ([2]; M21 tumors, Day 7): 514 ± 81 mm^3
- effect on tumor growth ([2]; M21 xenograft, intravenous therapy, compared with NaCl or tTF): Inhibition and partial remission
- Mean tumor volume Day 0 ([3]; HT1080 tumors, Day 0 (baseline)): 1725 ± 197 mm^3
- Mean tumor volume Day 7 ([3]; HT1080 tumors, Day 7): 1241 ± 122 mm^3
- effect on tumor growth ([3]; HT1080 xenograft, intravenous therapy, compared with control groups): significant inhibition of growth; also recorded: partial regression of tumor volume
- H-E staining of tumors: thrombosis and necrosis (tumor blood vessels; FIG. 36, treated mice): Severe thrombosis and necrosis of tumor cells
- macroscopic appearance of tumor at the end of treatment (tumor blood vessels; M21 tumor, day 7): clear signs of necrosis
- histology of tumor blood vessels (thrombus formation) (tumor blood vessels; [5]): blood vessels appear to be thrombolytically occluded
- histology: tumor necrosis in supply region of occluded vessel (tumor blood vessels; [5]): Extensive tumor necroses
- H-E staining of heart, lung, liver and kidney (thrombosis, necrosis) [4]: did not show any visible thrombosis or necrosis
- measured fluorescence intensity, factor higher than for tTF (human endothelial cells): 8
